Values of other authors as cited in PMC4788383.
Read-outs that look alike come from different tables or passages of the source.

Tests used:
[1] = target: RNA polymerase II CTD peptide CTD (Homo sapiens) (UniProt P24928)
[2] = target: RNA polymerase II CTD peptide CTD (Homo sapiens) (UniProt P24928); remark: listed apart in the source

## Pin1 (from UniProt Q13526)
[1]
  Kd: 30 µM
[2]
  Kd: 61 µM
